Reference: patent US20180193423A1 (LONGEVITY BIOTECH, published 2018)
Where no end group is shown, it is not given here. [ ]: non-standard residue; d: D form. ACPC = 2-aminocyclopentanecarboxylic acid; β3hT = C[C@@H](O)[C@H](N)CC(=O)O; β3hN = NC(=O)C[C@H](N)CC(=O)O; β3hL = CC(C)C[C@H](N)CC(=O)O; β3hK = NCCCC[C@H](N)CC(=O)O; β3hV = CC(C)[C@H](N)CC(=O)O; β3hD = NC(CC(=O)O)CC(=O)O; β3hS = N[C@@H](CO)CC(=O)O

T1: VPAC1 receptor (UniProt P32241 31-457, limits assumed)
T1 sequence (looked up): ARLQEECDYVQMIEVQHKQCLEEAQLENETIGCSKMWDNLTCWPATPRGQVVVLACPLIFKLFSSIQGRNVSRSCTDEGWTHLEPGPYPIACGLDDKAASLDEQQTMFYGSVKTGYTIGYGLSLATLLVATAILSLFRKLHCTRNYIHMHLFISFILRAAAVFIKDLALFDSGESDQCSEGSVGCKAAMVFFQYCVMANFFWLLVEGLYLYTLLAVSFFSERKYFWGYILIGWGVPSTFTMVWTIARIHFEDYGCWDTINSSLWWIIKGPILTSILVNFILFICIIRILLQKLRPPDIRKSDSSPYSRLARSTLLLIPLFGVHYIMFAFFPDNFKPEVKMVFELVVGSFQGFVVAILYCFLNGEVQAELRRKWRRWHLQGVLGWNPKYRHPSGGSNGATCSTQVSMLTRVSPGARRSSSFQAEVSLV

T2: VPAC2 receptor (UniProt P41587 24-438, limits assumed)
T2 sequence (looked up): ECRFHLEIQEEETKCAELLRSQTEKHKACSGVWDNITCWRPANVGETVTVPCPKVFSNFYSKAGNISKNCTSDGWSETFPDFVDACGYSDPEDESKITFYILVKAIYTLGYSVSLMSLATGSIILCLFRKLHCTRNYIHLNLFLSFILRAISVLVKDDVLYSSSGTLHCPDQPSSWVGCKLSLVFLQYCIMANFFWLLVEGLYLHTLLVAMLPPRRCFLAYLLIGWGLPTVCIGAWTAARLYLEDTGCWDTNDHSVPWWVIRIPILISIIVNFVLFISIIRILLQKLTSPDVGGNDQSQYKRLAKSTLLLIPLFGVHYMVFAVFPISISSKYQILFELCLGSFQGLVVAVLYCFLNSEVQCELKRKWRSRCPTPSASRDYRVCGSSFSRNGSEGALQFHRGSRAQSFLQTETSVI


Tests used:
Experiment in all cases: cell-based or functional assay
[1] = biological target: T1, VPAC1 receptor
[2] = biological target: T2, VPAC2 receptor
[3] = biological target: T1, VPAC1 receptor; remark: listed apart in the source

Row | Binder | EC 50 vpac1 (Molar), cell-based cAMP assay [1] [nM] | EC50 vpac2 (Molar), cell-based cAMP assay [2] [µM] | EC50 of ligand mediated receptor internalization (chemiluminescent signal, PathHunter eXpress CHO-K1 VIPR1 cells) [3] [nM]
1 | HSDAVFTDNY[β3hT]RLR[β3hK]QLA[β3hV]KKY[β3hL]NAI[β3hL]N (not fully specified (C-terminus); printed as HSDAVFTDNYtRLRkQLAvKKYlNAIlN) [LBT-V101] | 2.17 | 8260 | 10.2
2 | H[ACPC]DA[ACPC]FTDNY[β3hT]RLR[β3hK]QLA[β3hV]KKY[β3hL]NAI[β3hL]N (not fully specified (C-terminus); printed as HxDAxFTDNYtRLRkQLAvKKYlNAIlN) [LBT-V103] | 0.357 | 0.0796 | 
3 | H[ACPC]DA[β3hV]FTDNY[β3hT]RLR[β3hK]QLA[β3hV]KKY[β3hL]NAI[β3hL]N (not fully specified (C-terminus); printed as HxDAvFTDNYtRLRkQLAvKKYlNAIlN) [LBT-V104] | 4.43 | 0.262 | 
4 | H[β3hS]DA[β3hV]FTDNY[β3hT]RLR[β3hK]QLA[β3hV]KKY[β3hL]NAI[β3hL]N (not fully specified (C-terminus); printed as HsDAvFTDNYtRLRkQLAvKKYlNAIlN) [LBT-V105] | 64.4 | 0.716 | 
5 | H[β3hS]DA[β3hV]FTD[β3hN]Y[β3hT]RLR[β3hK]QLA[β3hV]KKY[β3hL]NAI[β3hL]N (not fully specified (C-terminus); printed as HsDAvFTDnYtRLRkQLAvKKYlNAIlN) [LBT-V106] | 298000 | 0.503 | 
6 | HS[β3hD]AVF[β3hT]DNY[β3hT]RLR[β3hK]QLA[β3hV]KKY[β3hL]NAI[β3hL]N (not fully specified (C-terminus); printed as HSdAVFtDNYtRLRkQLAvKKYlNAIlN) [LBT-V107] | > 1000 | > 1 | 
7 | H[dF]DAVFTDNY[β3hT]RLR[β3hK]QLA[β3hV]KKY[β3hL]NAI[β3hL]N (not fully specified (C-terminus); printed as HfDAVFTDNYtRLRkQLAvKKYlNAIlN) [LBT-V126] | 619000 | 0.344 | 
8 | H[dF]DA[ACPC]FTDNY[β3hT]RLR[β3hK]QLA[β3hV]KKY[β3hL]NAI[β3hL]N (not fully specified (C-terminus); printed as HfDAxFTDNYtRLRkQLAvKKYlNAIlN) [LBT-V127] | 89.3 | > 1 | 
9 | H[dF]DA[β3hV]FTDNY[β3hT]RLR[β3hK]QLA[β3hV]KKY[β3hL]NAI[β3hL]N (not fully specified (C-terminus); printed as HfDAvFTDNYtRLRkQLAvKKYlNAIlN) [LBT-V128] | 71.2 | 0.0503 | 
10 | H[dF]DA[β3hV]FTD[β3hN]Y[β3hT]RLR[β3hK]QLA[β3hV]KKY[β3hL]NAI[β3hL]N (not fully specified (C-terminus); printed as HfDAvFTDnYtRLRkQLAvKKYlNAIlN) [LBT-V129] | > 1000 | 0.989 | 
11 | H[dF][β3hD]AVF[β3hT]DNY[β3hT]RLR[β3hK]QLA[β3hV]KKY[β3hL]NAI[β3hL]N (not fully specified (C-terminus); printed as HfdAVFtDNYtRLRkQLAvKKYlNAIlN) [LBT-V130] | 912 | 0.609 | 
